T1: VEGF 항원 단백질 (VEGF-His) (UniProt P15692-4 27-191, limits assumed)
T1 construct: Expressed from pN293-VEGF in HEK293F cells, purified on Ni-NTA and by gel filtration; also called 혈관 내피세포 성장인자
T1 sequence: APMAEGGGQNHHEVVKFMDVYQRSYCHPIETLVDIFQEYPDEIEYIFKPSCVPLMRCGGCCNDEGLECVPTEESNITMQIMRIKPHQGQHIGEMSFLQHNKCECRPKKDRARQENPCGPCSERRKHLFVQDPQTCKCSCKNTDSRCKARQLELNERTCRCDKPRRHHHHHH


Biological target: T1, VEGF 항원 단백질 (VEGF-His)
Assay: ELISA on plate-coated VEGF-His (100 ng/well), IgG diluted 1/2 from 50 nM, anti-human Fc-HRP, fit in GraphPad Prism

Kd [nM] | Binder
0.06 | 항-VEGF 단일클론 인간항체 3H1 (IgG형) (antibody, V domains shown) VH: QVQLVESGGGLVKPGGSLRLSCAASGFIFSRYGMNWVRQAPGKGLEWVSSISGSSNYRYYADSVKGRFTISRDNAKNSLYLQMNSLRAEDTAVYYCARDASWGLIQGLDSWGQGTLVTVSS VL: DIQMTQSPSSLSASVGDRVTITCRASQSISSYLNWYQQEPGKAPKLLIYDASSLQSGVPSRFSGGGSGTDFTLTISSLQPEDFAAYYCQQSYSTPYTFGQGTKVDIK
0.05 | 항-VEGF 단일클론 인간항체 7D2 (IgG형) (antibody, V domains shown) VH: QMQLVQSGGGLVQPGGSLRLSCAASGFTFSSFEMNWVRQAPGKGLEWLSYISNSGSTIYYADSVKGRFTISRDNAKNSLYLQMNSLRAEDTAVYYCARDSRYYGIHGMDVWGQGTTITVSS VL: DIQMTQSPSSLSASVGDRVTITCRASQTISTYLNWYQQKPGKAPKLLIYAASSLQSGVPSRFSGSGSGTDFTLTISSLQPEDFATYYCQQSSSTPRTFGQGTRLEIK
0.025 | 항-VEGF 단일클론 인간항체 4C4 (IgG형) (antibody, V domains shown) VH: QVQLVQSGAEVKKPGSSVKVSCKASGGTFSSSAFSWVRQAPGHGLEWMGRIIPMFDMTDYAQRFQGRLTIIADESSSTAYMELSSLRSEDTAVYYCARYKSGSYGMDVWGQGTTVTVSS VL: NFMLTQPASVSGSPGQSITISCTGSSSDVGGYNYVSWYQQHPGKAPQLIIYDVTKRPSGVSNRFSGSKSGNSASLTISGLQAEDEADYYCSSYSSSTFYVFGTGTKVTVL
